Experimental findings from patent publication US20250297232A1, “BACTERIAL MYELOPEROXIDASE-CATALASE AND APPLICATIONS THEREOF” (priority 2022, published 2025) are described below.

One test has as its system E. coli ATCC 25922. As to the kind of experiment: Microbicidal activity: counting colonies on Petri dishes. The conditions noted are these: 1 h contact with 1.10^6 CFU/mL, 25 mM SCN^−, pH7.4; enzyme alone: wt RbMPO 300 nM or GOxaspniger 25 nM. In kind it is cell-based. As to the method:
10 mL of TSB medium (pH7.4) was inoculated with a freshly obtained colony of E. coli ATCC 25922, and the culture was incubated at 37° C. and 190 rpm overnight. In the morning, 25 mL of TSB medium were inoculated with the previous day's pre-culture to obtain an OD620 nm of 0.07 at TO. When the bacterial culture reached the exponential phase, the bacterial solution was diluted 10-fold in TSB in order to reach 1.10^6 CFU/mL. This dilution was then contacted with the enzyme solution for 1 hour (in a final volume of 1 mL). Further dilutions were then made (10^−1, 10^−4, 10−5, 10^−6). 100 μL of these solutions were spread on a Petri dish containing TSB agar medium and placed at 37° C. overnight. The next day, the surviving colonies were counted and the number of CFU/mL was calculated using the formula below: […]

A short description of test [1]: Heme reconstitution of apo wt and mutated RbMPOs (tryptophan fluorescence quenching). The conditions noted are these: heme reconstitution of apo enzyme; 1 μM enzyme, 50 mM sodium phosphate pH7.5, 25° C. It counts as binding. As to the method:
Sample dilutions were performed in a 50 mM pH7.5 sodium phosphate buffer.

Test [2] can be described thus: Chlorination activity with APF probe, NaCl range. In kind it is biochemical. The conditions noted are these: linear increase of kss, 1 μM RbMPOs, 79 μM H2O2, 10 μM APF. The source says:
The chlorination activity of myeloperoxidases can be determined using the aminophenyl fluorescein (APF) probe. One can indeed detect the oxidation of APF (non-fluorescent) by HOCl into fluorescein, a fluorescent molecule that is detectable at λex=485 nm and λem=525 nm. According to such test, the fluorescence measured is proportional to the quantity of fluorescein, which itself is proportional to the quantity of HOCl produced by the myeloperoxidase.
Measurements of chlorination activity were herein performed in Corning 384-well clear-bottom (flat-bottom) plates with a reaction volume of 20 μL, in triplicate at 37° C., and in a 50 mM NaPi buffer at pH7.5. […] A 10 to 30 minutes kinetic was performed for each range value and the fluorescence intensity was compared to that of the standard fluorescein range. Thus, the measured fluorescence is proportional to the amount of fluorescein, which in turn is proportional to the amount of HOCl produced by the RbMPOs.
The slopes were measured at the onset of the reaction in order to be in initial velocity. From these values, it was possible to calculate the kss with the following equation: […]
where slopes in FI.pmoles^−1 corresponds to the slope of the fluorescein standard range: 2.95 10^6+1.13 10^5.

Test [3] can be described thus: Steady-state kinetics by stopped-flow, NaBr (Tau-NHBr formation, 289 nm). In kind it is biochemical. The conditions noted are these: 300 nM enzyme, 79 μM H2O2. As to the method:
(§1) pH- and temperature-dependent studies were carried out for each substrate.
(§2) These temperatures were reached by using a stopped-flow coupled to a cryostat.
(§3) For temperature and pH measurements, RbMPO was set at the same concentration as in the determination of steady state kinetics parameters.

A short description of test [4]: Steady-state kinetics by stopped-flow, NaSCN (hypothiocyanate formation, 240 nm). In kind it is biochemical. The conditions noted are these: for substrate specificity: from steady-state NaSCN, NaBr and NaCl ranges. As for the experimental part: as §1, §2, §3

Where a chain is given by its changes, count along the chain named. Names may count otherwise. “Also recorded” adds a separate entry of the source.

B1: GOxaspniger: glucose oxidase isolated from Aspergillus niger (e.g. CAS number: 9001-37-0) (protein, UniProt P13006 17-605, looked up)
Glucose oxidase: LPHYIRSNGIEASLLTDPKDVSGRTVDYIIAGGGLTGLTTAARLTENPNISVLVIESGSYESDRGPIIEDLNAYGDIFGSSVDHAYETVELATNNQTALIRSGNGLGGSTLVNGGTWTRPHKAQVDSWETVFGNEGWNWDNVAAYSLQAERARAPNAKQIAAGHYFNASCHGVNGTVHAGPRDTGDDYSPIVKALMSAVEDRGVPTKKDFGCGDPHGVSMFPNTLHEDQVRSDAAREWLLPNYQRPNLQVLTGQYVGKVLLSQNGTTPRAVGVEFGTHKGNTHNVYAKHEVLLAAGSAVSPTILEYSGIGMKSILEPLGIDTVVDLPVGLNLQDQTTATVRSRITSAGAGQGQAAWFATFNETFGDYSEKAHELLNTKLEQWAEEAVARGGFHNTTALLIQYENYRDWIVNHNVAYSELFLDTAGVASFDVWDLLPFTRGYVHILDKDPYLHHFAYDPQYFLNELDLLGQAAATQLARNISNSGAMQTYFAGETIPGDNLAYDADLSAWTEYIPYHFRPNYHGVGTCSMMPKEMGGVVDNAARVYGVQGLRVIDGSIPPTQMSSHVMTVFYAMALKISDAILEDYASMQ
With B1, in the test on E. coli ATCC 25922, the surviving bacteria is 1,015,000±21,213 CFU/mL.

B2: H203A: RbMPO with active site mutation H203A, generated by site-directed mutagenesis (protein)
chain: MLFWSKRTRKHPGRKRRRLRSEQLESRQLLAADFGGYRHNIYDAEDVNDDGRVSAIDALLVINAMTSETSRDENVFTDVNGDGRRSALDALRVINRIERGDVFPIDTSGDEDLNTLLPEMPSEVRSIDGSGNNPNDHLWGSVGQRLIRMAPAAYGDGISTLAGANRPSAREVSNVLSAMNTSQVLNDRGLSAFVYVWGQFIDADLGLTESDEHGEAIDISVPEGDLWFDPMGSGEAVIPMTRTPIADGTGTSVGNPAQQFNQITAFIDGSMVYGSDAATAERLRTFAGGRLAISDNGLLPMDESGMVIAGDVRASENVGLTAIQTLFVREHNRLADEIFAADPEATDEEIYQRARLVVASLIQSITYNEFLPALLGQRAMDSYRGYDASVNPGIANEFSTAAFRLGHSTLRDEVGFMSNDGRESKDEMELKDAFFHASMLEETGIDSLLKFDASVQAQEIDLAVVDSLRNFLFGPPGAGGLDLVAMNIQRGRDHGLSDYNTTRQAYGLDRVETFDQITGDVELQQKLASLYGTVDNIDLWVGLMAEDHQHDASVGELTGLIIADQFQRTRDGDRFFYKNVLTDSEVESIERSTLADLIERNTSVDGLQENVFFMQVELRGRVILASSIPPNTMPSEVREEEIRGVSGMAIELIDASGKLVDSTVSDQHGNYRFRALSETGDYQVRLSESGEAMDVLVAHGAERIRGLDFIVLA
On to B2, for which the k2 in test [1] is 1840 ± 167 M⁻¹ s⁻¹; in test [2], “no catalytic constant could be determined; also recorded: scatter plot”. The “kss/[Br^−]” value in test [3] (NaBr range, linear (k2)) turned out to be 73.94 ± 15.07 M⁻¹ s⁻¹. Further, in test [4], the substrate specificity result was “higher specificity for SCN^− than Br^−”.

B3: E316A: RbMPO with active site mutation E316A, generated by site-directed mutagenesis (protein)
chain: B2 chain with A203H, E316A
Take B3: the k2 in test [1] is given as 418+34 M−1 · s−1; in test [2], “no catalytic constant could be determined; also recorded: scatter plot”; in test [4] (NaSCN range, linear increase of kss, 300 nM enzyme, 79 μM H2O2) it was 1936+374 M^−1 · s^−1. Further, the “activity with Br^− (NaBr range), in words” value in test [3] is listed as “lack of RbMPO activity”. Besides, the substrate specificity entry in test [4] is recorded as “active only for SCN^−”.
